From PMC3852489

Target: S377-588-Fc (residues 377-588 of MERS-CoV spike protein fused with human IgG Fc) (MERS-CoV) (UniProt K9N5Q8)
Experiment: SDS-PAGE of non-boiled against boiled sample

S377-588-Fc (residues 377-588 of MERS-CoV spike protein fused with human IgG Fc) (from UniProt K9N5Q8 377-588) (Fc fusion)
stoichiometry N: 2
